The record followed here is paper PMC2693498, “The triple combination of tenofovir, emtricitabine and efavirenz shows synergistic anti-HIV-1 activity in vitro: a mechanism of action study”.

Data set [1] concerns the target T1, HIV-1 reverse transcriptase p66/p51, wild-type (HIV-1, UniProt P04585;P04585 588-1147;588-1027). The data set can be described thus: EMSA; dCTP titrated (ligand Kd); Bmax 55.8%; DEC binding buffer not in the material; 6% non-denaturing PAGE; DEC defined as resistant to excess competitor template; primer/template annealed 1:1.3 in 50 mM. The conditions noted are these: protein: recombinant; tags: N-terminal 6-His; copies: 1;1; label: 5'-32P primer; template 5' overhang 24 nt, other end blunt. (In general: In EMSA bound probe runs differently from free probe, usually more slowly.)

Data set [2] has as its target T1, HIV-1 reverse transcriptase p66/p51, …. The data set can be described thus: EMSA; FTC-TP titrated (ligand Kd); Bmax 60.2%; DEC binding buffer not in the material; 6% non-denaturing PAGE; DEC defined as resistant to excess competitor template; primer/template annealed 1:1.3 in 50 mM. Conditions: protein: recombinant; tags: N-terminal 6-His; copies: 1;1; label: 5'-32P primer; template 5' overhang 24 nt, other end blunt.

Data set [3] shares this target. The data set can be described thus: EMSA; EFV titrated (ligand Kd); Bmax 11.2%; DEC binding buffer not in the material; 6% non-denaturing PAGE; DEC defined as resistant to excess competitor template; primer/template annealed 1:1.3 in 50 mM. Conditions: protein: recombinant; tags: N-terminal 6-His; copies: 1;1; label: 5'-32P primer; template 5' overhang 24 nt, other end blunt.

The target is the same in data set [4]. Put plainly: EMSA; EFV titrated (ligand Kd); Bmax 44.4%; DEC binding buffer not in the material; 6% non-denaturing PAGE; DEC defined as resistant to excess competitor template; primer/template annealed 1:1.3 in 50 mM. Conditions: protein: recombinant; tags: N-terminal 6-His; copies: 1;1; label: 5'-32P primer; template 5' overhang 24 nt, other end blunt.
Data set [5] shares this target. Put plainly: EMSA; dCTP titrated (ligand Kd); Bmax 50.0%; DEC binding buffer not in the material; 6% non-denaturing PAGE; DEC defined as resistant to excess competitor template; primer/template annealed 1:1.3 in 50 mM. The conditions noted are these: protein: recombinant; tags: N-terminal 6-His; copies: 1;1; label: 5'-32P primer; template 5' overhang 24 nt, other end blunt.

Data set [6] shares this target. The data set can be described thus: EMSA; FTC-TP titrated (ligand Kd); Bmax 50.0%; DEC binding buffer not in the material; 6% non-denaturing PAGE; DEC defined as resistant to excess competitor template; primer/template annealed 1:1.3 in 50 mM. The conditions noted are these: protein: recombinant; tags: N-terminal 6-His; copies: 1;1; label: 5'-32P primer; template 5' overhang 24 nt, other end blunt.

Data set [7] shares this target. Put plainly: EMSA; EFV titrated (ligand Kd); Bmax 10.6%; DEC binding buffer not in the material; 6% non-denaturing PAGE; DEC defined as resistant to excess competitor template; primer/template annealed 1:1.3 in 50 mM. The conditions noted are these: protein: recombinant; tags: N-terminal 6-His; copies: 1;1; label: 5'-32P primer; template 5' overhang 23 nt, other end blunt.

The target is the same in data set [8]. Put plainly: EMSA; dATP titrated (ligand Kd); Bmax 60%; DEC binding buffer not in the material; 6% non-denaturing PAGE; DEC defined as resistant to excess competitor template; primer/template annealed 1:1.3 in 50 mM. Conditions: protein: recombinant; tags: N-terminal 6-His; copies: 1;1; label: 5'-32P primer; template 5' overhang 23 nt, other end blunt.
Data set [9] has the same target. The data set can be described thus: EMSA; TFV-DP titrated (ligand Kd); Bmax 55%; DEC binding buffer not in the material; 6% non-denaturing PAGE; DEC defined as resistant to excess competitor template; primer/template annealed 1:1.3 in 50 mM. Conditions: protein: recombinant; tags: N-terminal 6-His; copies: 1;1; label: 5'-32P primer; template 5' overhang 23 nt, other end blunt.

For data set [10] the target is unchanged. The data set can be described thus: EMSA; EFV titrated (ligand Kd); Bmax 3.96%; DEC binding buffer not in the material; 6% non-denaturing PAGE; DEC defined as resistant to excess competitor template; primer/template annealed 1:1.3 in 50 mM. Conditions: protein: recombinant; tags: N-terminal 6-His; copies: 1;1; label: 5'-32P primer; template 5' overhang 23 nt, other end blunt.

The target is the same in data set [11]. The data set can be described thus: EMSA; EFV titrated (ligand Kd); Bmax 5.53%; DEC binding buffer not in the material; 6% non-denaturing PAGE; DEC defined as resistant to excess competitor template; primer/template annealed 1:1.3 in 50 mM. The conditions noted are these: protein: recombinant; tags: N-terminal 6-His; copies: 1;1; label: 5'-32P primer; template overhangs: 5' 8 nt, 3' 8 nt.

The target is the same in data set [12]. The data set can be described thus: EMSA; dATP titrated (ligand Kd); Bmax 38.0%; DEC binding buffer not in the material; 6% non-denaturing PAGE; DEC defined as resistant to excess competitor template; primer/template annealed 1:1.3 in 50 mM. Conditions: protein: recombinant; tags: N-terminal 6-His; copies: 1;1; label: 5'-32P primer; template overhangs: 5' 8 nt, 3' 8 nt.

The target is the same in data set [13]. Put plainly: EMSA; EFV titrated (ligand Kd); Bmax 14.9%; DEC binding buffer not in the material; 6% non-denaturing PAGE; DEC defined as resistant to excess competitor template; primer/template annealed 1:1.3 in 50 mM. Conditions: protein: recombinant; tags: N-terminal 6-His; copies: 1;1; label: 5'-32P primer; template overhangs: 5' 8 nt, 3' 8 nt.
Data set [14] has the same target. The data set can be described thus: EMSA; TFV-DP titrated (ligand Kd); Bmax 15.3%; DEC binding buffer not in the material; 6% non-denaturing PAGE; DEC defined as resistant to excess competitor template; primer/template annealed 1:1.3 in 50 mM. The conditions noted are these: protein: recombinant; tags: N-terminal 6-His; copies: 1;1; label: 5'-32P primer; template overhangs: 5' 8 nt, 3' 8 nt.

B1: D26/D50, ddAMP-terminated (dsDNA)
DNA 1: CTGAGACAACATCTGCTGAGGTAGGA
DNA 2: TGTCGTGTGGTGTCGTGTGGTATGTCCTACCTCAGCAGATGTTGTCTCAG
modifications: 3'-terminal A of primer is ddAMP
In the case of B1, the “apparent K (half saturation)” value in data set [1] stood at 8.1 ± 2.1 µM; in data set [2], 86.8 ± 0.2 µM; in data set [3], 2420 ± 1100 nM.

B2: D26/D50, TFV-terminated (dsDNA)
DNA 1: CTGAGACAACATCTGCTGAGGTAGGA
DNA 2: B1 DNA 2
modifications: 3'-terminal A of primer is tenofovir (chain terminator)
As to B2, the results for the “apparent K (half saturation)” value in [4], in data set [5] and in data set [6] were 1220 ± 280 nM, 179 ± 33 µM and 46.5 ± 7.8 µM, respectively.

B3: D27/D50, ddCMP-terminated (dsDNA)
DNA 1: CTGAGACAACATCTGCTGAGGTAGGAC
DNA 2: B1 DNA 2
modifications: 3'-terminal C of primer is ddCMP
B3: the results for the “apparent K (half saturation)” value in data set [7], in data set [8] and in data set [9] were 110 ± 60 nM, 6.5 ± 2.6 µM and 140 ± 19 µM, respectively.

B4: D27/D50, FTC-MP-terminated (dsDNA)
DNA 1: CTGAGACAACATCTGCTGAGGTAGGAC
DNA 2: B1 DNA 2
modifications: 3'-terminal C of primer is emtricitabine-MP
For B4, the “apparent K (half saturation)” value in data set [10] was determined as 1260 ± 240 nM.

B5: D20/D36C, FTC-MP-terminated (dsDNA)
DNA 1: GTCCCTGTTCGGGCGCCACC
DNA 2: TCTCTAATGGTGGCGCCCGAACAGGGACCTGAAAGC
modifications: 3'-terminal C of primer is emtricitabine-MP
For the molecule B5, in [11], the “apparent K (half saturation)” value was 1540 ± 330 nM.

B6: D20/D36C, ddCMP-terminated (dsDNA)
DNA 1: GTCCCTGTTCGGGCGCCACC
DNA 2: B5 DNA 2
modifications: 3'-terminal C of primer is ddCMP
As to B6, the results for the “apparent K (half saturation)” value in data set [12], in [13] and in data set [14] were 16.9 ± 8.5 µM, 1030 ± 250 nM and 445 ± 114 µM, respectively.
